Experimental data published in paper PMC6635492, “Structural basis for the adsorption of a single-stranded RNA bacteriophage” (Nature Communications, 2019).

Target: the molecule itself
Assay: cryo-EM structure; single-particle cryo-EM of MS2 virions incubated with purified F-pili for 30 min at 37 °C; grids tilted 0°, 15° or 30°; maps at 5.0 Å (whole complex), 6.2 Å (F-pilus/Mat, local mask) and 5.6 to 7.3 Å (three classes)

B1: F-pilin, subunit of the E. coli F-pilus encoded by the pOX38 plasmid (natural protein, E. coli (pOX38 plasmid), UniProt P04737 52-121, looked up)
chain: AGSSGQDLMASGNTTVKATFGKDSSVVKWVVLAEVLVGAVMYMMTKNVKFLAGFAIISVFIAVGMAVVGL
notes: F-pilin of the pOX38 (F) plasmid, mature pilin; its first five residues are printed as AGSSG; assembled as a five-start helical filament with one phospholipid per pilin; initial model PDB 5LER. numbers count on: the mature protein; Stood in the assay as the assembled filament (stoichiometric pilin-phospholipid complex); the number of subunits is not fixed; source: on the cells for cryo-ET
binding result: binds
